{
  "source": "paper PMC10470207",
  "about": "“Activation of human RNA lariat debranching enzyme Dbr1 by binding protein TTDN1 occurs though an intrinsically disordered C-terminal domain” (The Journal of Biological Chemistry, 2023)",
  "key": {"[1]": {"biological_target": "T1, human RNA lariat debranching enzyme Dbr1, full-length (1-544) (human, UniProt Q9UK59 1-544)", "T1 construct": "human RNA lariat debranching enzyme Dbr1, full-length, residues 1-544; codon-optimized expression plasmid synthesized by DNA2.0; also called hDbr1; human Dbr1; source: E. coli BL21, purified (Ni column, Source 15 Q)", "T1 sequence (looked up)": "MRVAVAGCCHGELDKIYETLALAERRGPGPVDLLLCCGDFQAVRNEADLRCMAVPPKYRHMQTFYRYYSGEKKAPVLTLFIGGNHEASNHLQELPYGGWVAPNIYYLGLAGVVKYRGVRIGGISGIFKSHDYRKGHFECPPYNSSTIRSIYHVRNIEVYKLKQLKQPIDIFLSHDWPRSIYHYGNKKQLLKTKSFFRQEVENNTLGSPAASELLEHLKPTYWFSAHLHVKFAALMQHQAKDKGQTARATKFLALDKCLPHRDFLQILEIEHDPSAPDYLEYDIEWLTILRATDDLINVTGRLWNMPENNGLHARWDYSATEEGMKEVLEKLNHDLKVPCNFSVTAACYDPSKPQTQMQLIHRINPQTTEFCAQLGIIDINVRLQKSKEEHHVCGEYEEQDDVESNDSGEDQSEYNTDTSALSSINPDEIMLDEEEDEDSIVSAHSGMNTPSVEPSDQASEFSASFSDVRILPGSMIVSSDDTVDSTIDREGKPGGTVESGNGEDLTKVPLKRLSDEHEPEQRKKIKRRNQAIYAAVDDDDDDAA", "assay": "SEC; Superdex 200-Increase 10/300 in SEC buffer (50 mM Tris pH 8, 100 mM NaCl, 1 mM TCEP); about 100 ug Dbr1 injected, Drn1 added at an equimolar ratio; peak fraction on a Coomassie-stained denaturing gel", "settings": "both partners purified"}, "[2]": {"biological_target": "the molecule itself", "assay": "AUC; proteins diluted to 0.9 A280 in Q-A buffer (20 mM Tris pH 8, 50 mM NaCl, 1 mM TCEP); 40,000 RPM; analysed with Ultrascan"}, "[3]": {"biological_target": "T1, human RNA lariat debranching enzyme …", "assay": "fluorescence polarisation; fluorescein-labeled TTDN1 fixed at 2.5 nM; unlabeled Dbr1 titrated (3-fold dilution from 2.8 uM to 1 nM) or Drn1 at 225 nM; SEC buffer; black 96-well half-area plates", "settings": "both partners purified"}, "[4]": {"biological_target": "T1, human RNA lariat debranching enzyme …", "assay": "cell-based or functional assay"}},
  "data": [
    {"binder": "Drn1 (human Drn1 homolog, Cwf19-L1) (natural protein, UniProt Q69YN2 1-538, looked up, human Drn1 homolog (Cwf19-L1); cDNA purchased from Genecopoeia, subcloned into a modified pET vector; source: E. coli BL21, purified (Ni column, Superdex-200)) MAQKPLRLLACGDVEGKFDILFNRVQAIQKKSGNFDLLLCVGNFFGSTQDAEWEEYKTGIKKAPIQTYVLGANNQETVKYFQDADGCELAENITYLGRKGIFTGSSGLQIVYLSGTESLNEPVPGYSFSPKDVSSLRMMLCTTSQFKGVDILLTSPWPKCVGNFGNSSGEVDTKKCGSALVSSLATGLKPRYHFAALEKTYYERLPYRNHIILQENAQHATRFIALANVGNPEKKKYLYAFSIVPMKLMDAAELVKQPPDVTENPYRKSGQEASIGKQILAPVEESACQFFFDLNEKQGRKRSSTGRDSKSSPHPKQPRKPPQPPGPCWFCLASPEVEKHLVVNIGTHCYLALAKGGLSDDHVLILPIGHYQSVVELSAEVVEEVEKYKATLRRFFKSRGKWCVVFERNYKSHHLQLQVIPVPISCSTTDDIKDAFITQAQEQQIELLEIPEHSDIKQIAQPGAAYFYVELDTGEKLFHRIKKNFPLQFGREVLASEAILNVPDKSDWRQCQISKEDEETLARRFRKDFEPYDFTLDD", "values": [
      {"measurement": "stoichiometry N", "setting": "[1]", "result": 1}
    ]},
    {"binder": "human Dbr1 truncated after residue 502 (Dbr1-502) (domain or fragment, UniProt Q9UK59 1-502, looked up, source: E. coli, purified) MRVAVAGCCHGELDKIYETLALAERRGPGPVDLLLCCGDFQAVRNEADLRCMAVPPKYRHMQTFYRYYSGEKKAPVLTLFIGGNHEASNHLQELPYGGWVAPNIYYLGLAGVVKYRGVRIGGISGIFKSHDYRKGHFECPPYNSSTIRSIYHVRNIEVYKLKQLKQPIDIFLSHDWPRSIYHYGNKKQLLKTKSFFRQEVENNTLGSPAASELLEHLKPTYWFSAHLHVKFAALMQHQAKDKGQTARATKFLALDKCLPHRDFLQILEIEHDPSAPDYLEYDIEWLTILRATDDLINVTGRLWNMPENNGLHARWDYSATEEGMKEVLEKLNHDLKVPCNFSVTAACYDPSKPQTQMQLIHRINPQTTEFCAQLGIIDINVRLQKSKEEHHVCGEYEEQDDVESNDSGEDQSEYNTDTSALSSINPDEIMLDEEEDEDSIVSAHSGMNTPSVEPSDQASEFSASFSDVRILPGSMIVSSDDTVDSTIDREGKPGGTVESGNG", "values": [
      {"measurement": "binding result", "setting": "[2]", "result": "binds"}
    ]},
    {"binder": "trichothiodystrophy nonphotosensitive 1 (TTDN1), fluorescein-labeled (natural protein, UniProt Q8TAP9 1-179, looked up, 5-iodoacetamido-fluorescein label on the cysteine residue at the C terminus, trichothiodystrophy nonphotosensitive 1 (TTDN1); codon-optimized expression plasmid ordered from GenScript; The debranching (functional) assays used unlabeled, GuHCl-solubilized TTDN1 of the same construct; also called labeled TTDN1) MQRQNFRPPTPPYPGPGGGGWGSGSSFRGTPGGGGPRPPSPRDGYGSPHHTPPYGPRSRPYGSSHSPRHGGSFPGGRFGSPSPGGYPGSYSRSPAGSQQQFGYSPGQQQTHPQGSPRTSTPFGSGRVREKRMSNELENYFKPSMLEDPWAGLEPVSVVDISQQYSNTQTFTGKKGRYFC", "values": [
      {"measurement": "Kd", "setting": "[3]", "result": "~3", "unit": "nM"},
      {"measurement": "catalytic efficiency of Dbr1 debranching of a fluorescent branched RNA substrate, TTDN1:Dbr1 mixture at 10:1 molar ratio (unlabeled, GuHCl-solubilized TTDN1), relative to Dbr1 alone", "setting": "[4]", "result": 19, "unit": "fold"}
    ]},
    {"binder": "human Dbr1 truncated after residue 399 (Dbr1-399) (domain or fragment, UniProt Q9UK59 1-399, looked up, source: E. coli, purified) MRVAVAGCCHGELDKIYETLALAERRGPGPVDLLLCCGDFQAVRNEADLRCMAVPPKYRHMQTFYRYYSGEKKAPVLTLFIGGNHEASNHLQELPYGGWVAPNIYYLGLAGVVKYRGVRIGGISGIFKSHDYRKGHFECPPYNSSTIRSIYHVRNIEVYKLKQLKQPIDIFLSHDWPRSIYHYGNKKQLLKTKSFFRQEVENNTLGSPAASELLEHLKPTYWFSAHLHVKFAALMQHQAKDKGQTARATKFLALDKCLPHRDFLQILEIEHDPSAPDYLEYDIEWLTILRATDDLINVTGRLWNMPENNGLHARWDYSATEEGMKEVLEKLNHDLKVPCNFSVTAACYDPSKPQTQMQLIHRINPQTTEFCAQLGIIDINVRLQKSKEEHHVCGEYEEQ", "values": [
      {"measurement": "binding result", "setting": "[2]", "result": "binds"}
    ]}
  ]
}
